Assay: Terminal sterilization by e-beam irradiation: BNP purity and degradation products by RP-HPLC
Type: physicochemical
Conditions: best performing system (Example 4)
Method: FIGS. 14-16 detail the major degradation pathways for BNP coated on microprojections for all conditions treated by e-beam. […] All modes of degradation are reduced for the microprojection members packaged with desiccant and pre-dried retainer rings and purged with argon.
In this example, methionine from JT Baker (Phillipsburg, N.J.) was added to the BNP formulations in the amount of 1% by weight. These coating formulations were then irradiated using either e-beam or gamma radiation at varying temperatures and under varying atmospheric conditions. FIGS. 17-20 show the purity and degradation of the samples following gamma irradiation and FIGS. 21-24 show the purity and degradation of the samples following e-beam irradiation.
Further, systems packaged with pre-dried retainer rings performed better than systems stored with desiccant when terminally sterilized by e-beam. The best performing system retained 95.1% of the BNP purity, representing only approximately a 2% drop from the initial material purity.

With BNP the BNP purity retained was 95.1% and the “drop from the initial material purity” value was ~2%.

Source: US20060280645A1, “Method for terminal sterilization of transdermal delivery devices” (priority 2005, published 2006)
